{"source": "paper doi:10.1101/755678", "key": {"[1]": {"molecular_target": "RagA (TonB dependent transporter, PG_0185) of P. gingivalis W83 (Porphyromonas gingivalis W83)", "experiment": "crystal structure"}, "[2]": {"molecular_target": "RagA (TonB dependent transporter, PG_0185) of P. gingivalis W83 (Porphyromonas gingivalis W83)", "experiment": "cryo-EM structure"}, "[3]": {"molecular_target": "RagB from ATCC 33277, mature part, C-terminal His6-tag, expressed in E. coli (Porphyromonas gingivalis ATCC 33277)", "experiment": "MST"}, "[4]": {"molecular_target": "RagB from W83, mature part, C-terminal His6-tag, expressed in E. coli (Porphyromonas gingivalis W83)", "experiment": "MST"}, "[5]": {"molecular_target": "RagAB complex from wild-type P. gingivalis W83, 8×His-tag on the C terminus of RagB (Porphyromonas gingivalis W83)", "experiment": "MST"}}, "data": [{"molecule": "RagA (TonB dependent transporter, PG_0185) of P. gingivalis W83 (natural protein)", "values": [{"measurement": "stoichiometry N", "setting": "[1]", "result": 2}, {"measurement": "stoichiometry N", "setting": "[2]", "result": 2}]}, {"molecule": "NIFKKNVGFKK", "note": "[P4 peptide (unlabelled)]", "values": [{"measurement": "Kd", "setting": "[3]", "result": 70, "unit": "µM"}, {"measurement": "Kd", "setting": "[4]", "result": 2000, "unit": "µM"}]}, {"molecule": "KATAEALKKALEEAGAEVELK", "note": "[P21 peptide (21 residues from the C-terminus of ribosomal protein L7)]", "values": [{"measurement": "Kd", "setting": "[3]", "result": 700, "unit": "µM"}, {"measurement": "Kd", "setting": "[4]", "result": 2000, "unit": "µM"}, {"measurement": "Kd", "setting": "[5]", "result": 0.4, "unit": "µM"}]}]}
